For assay [1], the target named is T1, human CD40 on cells (native CD40 on Ramos cells, human B cells, human monocyte-derived dendritic cells); cell … (human, UniProt P25942 21-193). Nature of the assay: cell-based or functional assay.
Assay [2] has as its target T1, human CD40 on cells (native CD40 on …). Kind of assay: FACS on live Ramos cells, goat anti-human IgG (H+L) PE. As for the experimental part: (§1) In another experiment, the ability of the CD40 antibodies to bind to native CD40 protein was determined by FACS analysis with live Ramos cells. Ramos cells were harvested and blocked with 1.5 ml blocking buffer (0.1% BSA/PBS) for 30 minutes. Antibodies at various concentrations were added to cells and incubated for 1 hour. After washing, 50 ul Goat-anti-human IgG (H+L) PE antibody at 1:1000 dilution in blocking solution was added and incubated for 30 minutes. Cells were then washed with PBS and were re-suspended with […] and analyzed by FACS. The antibodies tested were the 19-21 rabbit anti-CD40 agonist antibody, SGN-40 developed by Seattle Genetics and CP870893 from Pfizer.

The target is the same in assay [3]. Kind of assay: cell-based or functional assay. The source holds these as a separate data set.
A further assay addresses T2, CD40-Fc protein (Homo sapiens (Human), UniProt P25942 21-193).
T2 construct: not shown: Fc
Nature of the assay: ELISA, plates coated with CD40-Fc protein, OD405nm. An excerpt:
In order to assess the ability of the APX005 […] mutant to bind to CD40, APX005 S267E heavy chain and light chain plasmids were purified from transformed bacteria and transfected into 293-6E cell. Four days after transfection, antibody-containing culture supernatants were collected and tested for binding to CD40 using ELISA (ELISA plates coated with CD40-Fc protein).

In assay [4] the target is T1, human CD40 on cells (native CD40 on …). Kind of assay: FACS on live Ramos cells, goat anti-human IgG PE. As for the experimental part: as §1

T1 sequence (P25942 21-193): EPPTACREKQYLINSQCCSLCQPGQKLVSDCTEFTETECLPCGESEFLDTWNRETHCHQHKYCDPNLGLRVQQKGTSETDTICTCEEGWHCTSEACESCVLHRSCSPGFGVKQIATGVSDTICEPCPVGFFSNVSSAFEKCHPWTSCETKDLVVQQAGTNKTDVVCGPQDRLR
T2 sequence (P25942 21-193 limits assumed): as the sequence (P25942 21-193) above

B1: CP870893 (antibody, V domains shown)
VH: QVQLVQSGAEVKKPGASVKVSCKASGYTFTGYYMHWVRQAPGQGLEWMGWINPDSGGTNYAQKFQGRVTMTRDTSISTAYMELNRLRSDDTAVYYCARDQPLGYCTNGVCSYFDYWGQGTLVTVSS
VL: DIQMTQSPSSVSASVGDRVTITCRASQGIYSWLAWYQQKPGKAPNLLIYTASTLQSGVPSRFSGSGSGTDFTLTISSLQPEDFATYYCQQANIFPLTFGGGTKVEIK
Turning to B1, the “EC50 (ng/ml), CD40 agonist activity: up-regulation of CD86 on human B cells” value in assay [1] amounted to 37 ng/mL. Besides, in assay [2], the concentration for a half-maximal effect (EC50) worked out at 0.171 µg/mL.

B2: c19-21, chimeric 19-21 (rabbit Fab and human IgG1) (antibody, V domains shown)
VH: QSLEESGGRLVTPGTPLTLTCTVSGFDLSSNAMNWVRQAPGKGLEWIGYITISGSAGYASWAKGRFTISKTSTTVDLKISSPTTEDTATYFCARGYNTMAIWGPGTLVTVSS
VL: AQVLTQTPSPVSAPVGGTVTINCQSSQNVLINNRLAWYQQKPGQPPKLLIYDASKLASGVPSRFKGSGSGTQFTLTISGVQCDDAATYYCQAGYSSGDGNAFGGGTEVVVK
Consider B2, for which the “Pro-apoptosis activity (IC50)” value in assay [3] amounted to 0.02 µg/mL.

B3: 19-21 rabbit anti-CD40 agonist antibody (antibody, V domains shown)
VH: QSLEESGGRLVTPGTPLTLTCTVSGFDLSSNAMNWVRQAPGKGLEWIGYITISGSAGYASWAKGRFTISKTSTTVDLKISSPTTEDTATYFCARGYNTMAIWGPGTLVTVSS
VL: AQVLTQTPSPVSAPVGGTVTINCQSSQNVLINNRLAWYQQKPGQPPKLLIYDASKLASGVPSRFKGSGSGTQFTLTISGVQCDDAATYYCQAGYSSGDGNAFGGGTEVVVK
notes: Whether the rabbit or the chimeric form was used there is not clear
In assay [2], B3 had an EC50 of 0.0201 µg/mL.

B4: cR-3, chimeric R-3 (rabbit Fab and human IgG1) (antibody, V domains shown)
VH: QSLEESGGDLVKPGASLTLTCTASGFSFSDSFWIAWVRQAPGKGLEWIGCIHALSSGSTYYANWARGRFTISKTSSTTVTLQMNSLTAADTATYFCARSYAGYADYNVATGLNLWGPGTLVTVSS
VL: DVVMTQTPSSASAAVGGTVTTKCQASQSIGSYLAWYQQKPGQRPKLLIYAASNLASGVPSRFKGSRSGTEYTLTISGVQREDAATYYCLGSFTGSDTTFGGGTELEIL
Consider B4, for which, in assay [3], the “Pro-apoptosis activity (IC50)” value is 0.57 µg/mL.

B5: cR-8, chimeric R-8 (rabbit Fab and human IgG1) (antibody, V domains shown)
VH: QSLEESGGDLVKPGASLTLTCTASGFSFSSTYVCWVRQAPGKGLEWIACIYTGDGTNYSASWAKGRFTISKPSSTTVTLQMTSLTPADTATYFCARPDITYGFAINFWGPGTLVTVSS
VL: DIVMTQTPSSASEPVGGTVTIKCQASQSISSRLAWYQQKPGQPPKLLIYRASTLASGVPSRFKGSGSGTEFTLTISDLECADAATYYCQCTGYGISWPIGGGTEVVVK
On to B5, for which the “Pro-apoptosis activity (IC50)” value in assay [3] turned out to be 0.45 µg/mL.

B6: cR-33, chimeric R-33 (rabbit Fab and human IgG1) (antibody, V domains shown)
VH: QSLEESGGDLVKPGASLTLTCTASGFSFSSSYWICWVRQAPGKGLEWIACINTGSSVTTVYARWAKGRFTISKASSTTVTLQMTSLTAADTATYFCARYIIPGYNFNLWGPGTLVTVSS
VL: AYDMTQTPASVEVAVGGTVTINCQASQSISSYLYWYQQKPGQPPKLLIYDASKLASGVPSRFKGSGSGTQFTLTITGVECADAATYYCQQGYSHINVDNIFGGGTEVVVK
As for B6, the “Pro-apoptosis activity (IC50)” value in assay [3] stood at 0.9 µg/mL.

B7: APX005 S267E mutant (antibody, human IgG1, V domains shown)
VH: QVQLVESGGGVVQPGRSLRLSCAASGFSFSSTYVCWVRQAPGKGLEWIACIYTGDGTNYSASWAKGRFTISKDSSKNTVYLQMNSLRAEDTAVYFCARPDITYGFAINFWGPGTLVTVSS
VL: DIQMTQSPSSLSASVGDRVTIKCQASQSISSRLAWYQQKPGKPPKLLIYRASTLASGVPSRFSGSGSGTDFTLTISSLQPEDVATYYCQCTGYGISWPIGGGTKVEIK
For the molecule B7, the “EC50 (ng/ml), CD40 agonist activity: up-regulation of CD86 on human B cells” value in assay [1] turned out to be 4.15 ng/mL. For the same molecule, the values for the EC50 (with CD40-Fc protein; in assay [2]) were 0.0551 µg/mL and 0.0266 µg/mL, respectively. For the same molecule, in assay [4], the “fold higher affinity than CP870893” value turned out to be 6 fold.

The record behind these values is patent publication US20230406948A1 (APEXIGEN, published 2023).
